In article PMC10953559, “Native Capillary Electrophoresis–Mass Spectrometry of Near 1 MDa Non‐Covalent GroEL/GroES/Substrate Protein Complexes” (Advanced Science, 2024):

B1: double-ring (DR) mutant GroEL 14-mer (mutant GroEL14) (natural protein, E. coli, UniProt P0A6F5 2-548, looked up)
chain: AAKDVKFGNDARVKMLRGVNVLADAVKVTLGPKGRNVVLDKSFGAPTITKDGVSVAREIELEDKFENMGAQMVKEVASKANDAAGDGTTTATVLAQAIITEGLKAVAAGMNPMDLKRGIDKAVTAAVEELKALSVPASDSKAIAQVGTISANSDETVGKLIAEAMDKVGKEGVITVEDGTGLQDELDVVEGMQFDRGYLSPYFINKPETGAVELESPFILLADKKISNIREMLPVLEAVAKAGKPLLIIAEDVEGEALATLVVNTMRGIVKVAAVKAPGFGDRRKAMLQDIATLTGGTVISEEIGMELEKATLEDLGQAKRVVINKDTTTIIDGVGEEAAIQGRVAQIRQQIEEATSDYDREKLQERVAKLAGGVAVIKVGAATEVEMKEKKARVEDALHATRAAVEEGVVAGGGVALIRVASKLADLRGQNEDQNVGIKVALRAMEAPLRQIVLNAGEEPSVVANTVKGGDGNYGYNAATEEYGNMIDMGILDPTKVTRSALQYAASVAGLMITTEAMVTDLPKNDAADLGAAGGMGGMGGMGGMC
notes: GroEL, E. coli, UniProtKB P0A6F5, with four mutations made by QuikChange from the WT GroEL gene; the measured mass fits 14 monomers with the N-terminal methionine cleaved; numbers count the first methionine; also called DR GroEL14; source: E. coli BL21 (DE3) Gold, purified from the soluble fraction (chromatography, size exclusion); copies: 14

Assays:
[1] = target: the molecule itself; test: native MS; capillary electrophoresis online with native ESI-MS (CE-MS) of the oligomer; bare fused silica capillary, BGE 50 mM ammonium acetate pH 6.7, 20 kV reverse polarity, cartridge 15 °C, in-source desolvation 100 V; sample diluted in 50 mM Tris-HCl pH 7.5, 50 mM KCl, 15 mM MgCl2
[2] = target: B1; test: native MS; CE-MS; GroEL14 (6 µM) and GroES7 (6 µM) injected; BGE 50 mM ammonium acetate pH 6.7 with 10 to 50 µM ATPγS and 15 to 75 µM Mg2+; conditions: both partners purified

| Binder | stoichiometry N [1] [subunits] | stoichiometry N [2] [GroES7 per GroEL14] |
| --- | --- | --- |
| N-acetyl neuraminic acid aldolase, native tetramer (NanA4) (enzyme, E. coli, UniProt P0A6L4 2-297, looked up, N-acetyl neuraminic acid aldolase NanA, E. coli, WT monomer; the theoretical mass quoted for the detected tetramer (129 849.09 Da) is that with the N-terminal methionine cleaved; also called tetrameric NanA4; source: E. coli BL21 (DE3) Gold, purified from the soluble fraction (chromatography, size exclusion)) ATNLRGVMAALLTPFDQQQALDKASLRRLVQFNIQQGIDGLYVGGSTGEAFVQSLSEREQVLEIVAEEAKGKIKLIAHVGCVSTAESQQLAASAKRYGFDAVSAVTPFYYPFSFEEHCDHYRAIIDSADGLPMVVYNIPALSGVKLTLDQINTLVTLPGVGALKQTSGDLYQMEQIRREHPDLVLYNGYDEIFASGLLAGADGGIGSTYNIMGWRYQGIVKALKEGDIQTAQKLQTECNKVIDLLIKTGVFRGLKTVLHYMDVVSVPLCRKPFGPVDEKYLPELKALAQQLMQERG | 4 | – |
| B1 | 14 | – |
| single-ring (SR) mutant GroEL 7-mer (GroEL7) (natural protein, E. coli, UniProt P0A6F5 2-548, looked up, GroEL, E. coli, UniProtKB P0A6F5, with four mutations made by QuikChange from the WT GroEL gene; theoretical mass quoted for 7 monomers with the N-terminal methionine cleaved; numbers count the first methionine; also called SR GroEL7; mutant SR; source: E. coli BL21 (DE3) Gold, purified from the soluble fraction (chromatography, size exclusion)) AAKDVKFGNDARVKMLRGVNVLADAVKVTLGPKGRNVVLDKSFGAPTITKDGVSVAREIELEDKFENMGAQMVKEVASKANDAAGDGTTTATVLAQAIITEGLKAVAAGMNPMDLKRGIDKAVTAAVEELKALSVPCSDSKAIAQVGTISANSDETVGKLIAEAMDKVGKEGVITVEDGTGLQDELDVVEGMQFDRGYLSPYFINKPETGAVELESPFILLADKKISNIREMLPVLEAVAKAGKPLLIIAEDVEGEALATLVVNTMRGIVKVAAVKAPGFGDRRKAMLQDIATLTGGTVISEEIGMELEKATLEDLGQAKRVVINKDTTTIIDGVGEEAAIQGRVAQIRQQIEEATSDYDREKLQERVAKLAGGVAVIKVGAATEVEMKEKKARVEDALHATRAAVEEGVVAGGGVALIRVASKLADLRGQNEDQNVGIKVALRAMEAPLEQIVLNCGEAPAAVANTVKGGDGNYGYNAATEEYGNMIDMGILDPTKVTRSALQYAASVAGLMITTECMVTDLPKNDAADLGAAGGMGGMGGMGGMM | 7 | – |
| co-chaperonin GroES 7-mer (GroES7) (natural protein, E. coli, UniProt P0A6F9 1-97, looked up, GroES, E. coli, WT monomer; the measured mass fits the non-truncated form (N-terminal methionine kept); also called apo-GroES7; source: E. coli BL21 (DE3) Gold, purified from the soluble fraction (chromatography, size exclusion)) MNIRPLHDRVIVKRKEVETKSAGGIVLTGSAAAKSTRGEVLAVGNGRILENGEVKPLDVKVGDIVIFNDGYGVKSEKIDNEEVLIMSESDILAIVEA | 7 | 1 |
